Paper PMC9300677

How the values were obtained:
[1] = target: microtubules of Tuba4aΔpolyGlu (p/p) mice, containing mutant Tuba4a without C-terminal polyglutamylation (mouse (endogenous in hippocampal neurons and hippocampus)) (UniProt P68368); assay: soluble-tubulin extraction assay (TX-100 extraction); DIV15 hippocampal neurons extracted 90 s at 37 °C in MT-extraction buffer (80 mM PIPES pH 6.9, 0.3% Triton X-100, 150 mM NaCl); soluble and in-soluble (polymerized microtubules with associated MAPs) fractions compared by western blot
Chain of UniProt P68368 (P68368 whole entry, looked up, stated change not applied): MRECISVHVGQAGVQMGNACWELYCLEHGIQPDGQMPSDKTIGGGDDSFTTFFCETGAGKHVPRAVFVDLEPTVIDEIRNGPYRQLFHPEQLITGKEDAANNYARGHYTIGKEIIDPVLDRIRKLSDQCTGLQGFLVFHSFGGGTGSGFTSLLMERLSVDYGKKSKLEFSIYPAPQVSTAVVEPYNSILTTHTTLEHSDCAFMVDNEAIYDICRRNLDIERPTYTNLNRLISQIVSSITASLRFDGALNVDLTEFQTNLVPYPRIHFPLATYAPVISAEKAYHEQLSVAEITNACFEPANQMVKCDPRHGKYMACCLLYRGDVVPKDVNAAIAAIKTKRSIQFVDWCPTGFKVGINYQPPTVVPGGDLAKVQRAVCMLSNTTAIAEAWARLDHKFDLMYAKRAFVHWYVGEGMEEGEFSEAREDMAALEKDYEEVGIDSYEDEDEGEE

[2] = target: GSK3β (UniProt Q9WV60); assay: soluble-tubulin extraction assay, western blot quantification; settings: DIV15 neurons; n = 4 independent cultures per genotype; parent: est. 1.5; read off a plot
Chain of UniProt Q9WV60 (Q9WV60 whole entry, looked up): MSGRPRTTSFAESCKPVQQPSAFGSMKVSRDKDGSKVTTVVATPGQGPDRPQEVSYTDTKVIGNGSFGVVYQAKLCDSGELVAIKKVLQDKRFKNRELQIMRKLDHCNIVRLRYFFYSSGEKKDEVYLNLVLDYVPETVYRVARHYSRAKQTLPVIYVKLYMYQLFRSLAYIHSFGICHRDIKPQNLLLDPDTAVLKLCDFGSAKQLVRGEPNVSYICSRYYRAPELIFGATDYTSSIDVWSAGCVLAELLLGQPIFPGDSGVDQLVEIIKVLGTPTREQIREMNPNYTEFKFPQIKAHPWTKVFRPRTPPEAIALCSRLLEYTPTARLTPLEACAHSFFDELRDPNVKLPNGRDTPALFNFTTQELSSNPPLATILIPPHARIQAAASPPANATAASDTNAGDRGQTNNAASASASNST

[3] = target: GSK3α (UniProt Q2NL51); assay: microtubule pelleting assay, western blot quantification; settings: re-polymerization of hippocampal tubulin from adult mice; n = 3 mice per genotype; parent: est. 0.30; read off a plot
Chain of UniProt Q2NL51 (Q2NL51 whole entry, looked up): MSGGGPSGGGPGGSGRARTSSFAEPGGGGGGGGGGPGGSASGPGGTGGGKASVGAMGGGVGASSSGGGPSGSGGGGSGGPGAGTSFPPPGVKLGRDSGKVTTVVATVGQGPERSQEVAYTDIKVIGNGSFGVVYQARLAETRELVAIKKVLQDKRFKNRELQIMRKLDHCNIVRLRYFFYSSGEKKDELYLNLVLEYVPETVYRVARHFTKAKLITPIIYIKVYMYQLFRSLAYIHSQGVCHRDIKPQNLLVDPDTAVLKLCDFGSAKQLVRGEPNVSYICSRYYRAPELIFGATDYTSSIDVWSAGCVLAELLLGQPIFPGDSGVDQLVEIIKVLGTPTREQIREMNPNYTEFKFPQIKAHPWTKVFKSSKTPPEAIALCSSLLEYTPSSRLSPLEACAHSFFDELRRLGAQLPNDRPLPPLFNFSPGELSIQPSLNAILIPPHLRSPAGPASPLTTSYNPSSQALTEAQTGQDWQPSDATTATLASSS

[4] = target: GSK3β (UniProt Q9WV60); assay: as above; settings: re-polymerization of hippocampal tubulin from adult mice; n = 3 mice per genotype; parent: est. 0.40; read off a plot

Row | Substance | reduction of co-occurrence with microtubules in the in-soluble fraction against wild type (+/+) [1] [%] | other: in-soluble / soluble ratio [2] | other: pellet / supernatant ratio [3] | other: pellet / supernatant ratio [4]
1 | MAP2a/b (from UniProt P20357 1-1828) (natural protein) | > 50 |  |  | 
2 | Tau (mouse, endogenous) (from UniProt P10637 1-733) (natural protein) | > 50 |  |  | 
3 | microtubules of wild-type (+/+) mice, containing polyglutamylated Tuba4a (from UniProt P68368;Q9ERD7) Tuba4aΔpolyGlu (p/p) |  | 0.73 | 0.15 | 0.15
